# Data: the supplement of paper PMC10126150
# ± gives the standard deviation of the averaged measurements.
# System: ATP
# Test: switch fluorescence ratio, 500 uM ATP over buffer (Cy3 cluster intensity, sum of 5 cycles each) (fold (ratio)); higher = stronger signal-on switching upon ATP binding; sequences stand for … in TCGTCGGCAGCGTCAGATGTGTATAAGAGACAGTTTTTTTTTTTTTTTTTTTTTTTTT…TC
# Settings: aptamer strand: ATP DNA aptamer (quencher-CACCTGGGGGAGTATTGCGGAGGAAGG + anchor), 100 nM annealed; ATP concentration: 500 uM
# How it was run: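 Clusters carrying Cy3-labelled switching strands on a modified Illumina MiSeq flow-cell were annealed to 100 nM quencher-labelled ATP aptamer and imaged in selection buffer. They were imaged again after 15 min with 500 uM ATP at 22 °C, over five buffer/ATP cycles with NaOH stripping and re-annealing in between. For each cluster, the fluorescence ratio is the summed Cy3 intensity of the target cycles divided by that of the buffer cycles, averaged per switch-domain sequence. Clusters outside 100-1000 RFU were left out.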
# 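Further: ATP exposure 15 min at 22 °C before imaging.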
row,Sequence,switch fluorescence ratio
1,AGATGATAGG,1.0282 ± 0.00044
2,AGATGGAGGC,1.0705 ± 0.00017
3,AGATGGCTAG,0.999 ± 0.018
4,AGATGGGGCA,0.9774 ± 0.0024
5,AGATGGGGG,0.948 ± 0.066
6,AGATGGTTTC,0.993 ± 0.042
7,AGATGTATTT,0.997 ± 0.032
8,AGATGTGAGC,1.03 ± 0.059
9,AGATGTGTAG,1.04 ± 0.012
10,AGATGTTGTT,1.01 ± 0.023
11,AGATGTTTCC,1.04 ± 0.055
12,AGATTAAAGA,1.006 ± 0.009
13,AGATTACCTG,1.02 ± 0.027
14,AGATTACCTT,1.06 ± 0.017
15,AGATTAGAT,0.993 ± 0.015
16,AGATTAGGGA,0.975 ± 0.017
17,AGATTAGGGT,1.01 ± 0.017
18,AGATTATTTT,1.01 ± 0.032
19,AGATTCAATA,0.991 ± 0.016
20,AGATTCATGC,1.01 ± 0.019
21,AGATTCATTT,0.984 ± 0.021
22,AGATTCGGGA,0.967 ± 0.038
23,AGATTGAATG,0.97975 ± 0.00032
24,AGATTGCCGT,1.01 ± 0.068
25,AGATTGCTTG,0.977 ± 0.03

row,Sequence,switch fluorescence ratio
1,AGATTGGGGG,0.969 ± 0.034
2,AGATTGGGGT,1.01 ± 0.017
3,AGATTTAGTA,0.982 ± 0.06
4,AGATTTCACT,1.01 ± 0.016
5,AGATTTGGCT,0.9952 ± 0.0065
6,AGATTTTGCA,0.989 ± 0.027
7,AGATTTTTGG,1.003 ± 0.0026
8,AGCAAAAGAA,1.12 ± 0.15
9,AGCAACCCCT,1.81 ± 0.022
10,AGCAAGAGGC,1.26 ± 0.34
11,AGCAAGGATT,1.1 ± 0.1
12,AGCAAGTATC,1.24 ± 0.033
13,AGCAAGTTGT,1.03 ± 0.011
14,AGCAATGGGG,1.58 ± 0.051
15,AGCACGAGGG,0.9816 ± 0.0093
16,AGCACGGGGG,1.19 ± 0.28
17,AGCACTGGGA,1.04 ± 0.029
18,AGCACTTACA,1.35 ± 0.085
19,AGCAGAAAGT,1 ± 0.04
20,AGCAGGGGGT,1.05 ± 0.044
21,AGCAGGTTGT,1.05 ± 0.015
22,AGCAGTGCGG,1.03 ± 0.024
23,AGCAGTTCCG,1.02 ± 0.044
24,AGCATAAGCA,1.15 ± 0.27
25,AGCATAATAT,1.05 ± 0.012

row,Sequence,switch fluorescence ratio
1,AGCATGAACT,1.07 ± 0.044
2,AGCATGGTAG,1.02 ± 0.031
3,AGCATTGGGT,1.002 ± 0.0015
4,AGCATTGGTT,1.02 ± 0.035
5,AGCATTGTCA,1.01 ± 0.013
6,AGCCACTGGA,1.06 ± 0.059
7,AGCCCACTCG,1.04 ± 0.05
8,AGCCCATACG,1.2 ± 0.039
9,AGCCCGGGCA,0.956 ± 0.015
10,AGCCGAATTC,1.03 ± 0.06
11,AGCCGATATT,0.967 ± 0.015
12,AGCCGCTTCA,0.9803 ± 0.0053
13,AGCCGGCGGT,1.02 ± 0.019
14,AGCCGTTGAG,0.9916 ± 0.0061
15,AGCCTGTTAG,0.9892 ± 0.0087
16,AGCCTTTATC,1.04 ± 0.011
17,AGCGAATGGT,0.951 ± 0.012
18,AGCGACGGTT,0.982 ± 0.016
19,AGCGCCAGGG,1.13 ± 0.035
20,AGCGCCGAGT,0.973 ± 0.045
21,AGCGCGTCGC,0.955 ± 0.016
22,AGCGGATTCG,0.969 ± 0.053
23,AGCGGCCTAA,0.987 ± 0.014
24,AGCGGGAACG,1.005 ± 0.0013
25,AGCGGGAGAT,1.01 ± 0.061

row,Sequence,switch fluorescence ratio
1,AGCGGGAGGG,1.02 ± 0.015
2,AGCGGGATGC,1.03 ± 0.028
3,AGCGGGGAGG,1.03 ± 0.035
4,AGCGGGGGAG,1.01 ± 0.012
5,AGCGTCTTGC,1.01 ± 0.059
6,AGCGTTGGTG,1.03 ± 0.031
7,AGCGTTTAGA,0.989 ± 0.011
8,AGCGTTTATA,1.018 ± 0.0013
9,AGCGTTTTTT,0.998 ± 0.026
10,AGCTAATTTT,1.02 ± 0.013
11,AGCTACCTTA,1.09 ± 0.05
12,AGCTAGGTAA,1.01 ± 0.029
13,AGCTCAATTA,1.02 ± 0.03
14,AGCTGAAG,0.967 ± 0.013
15,AGCTGACTAT,1.06 ± 0.11
16,AGCTGAGTAA,1.036 ± 0.0085
17,AGCTGATGTG,1.008 ± 0.0051
18,AGCTGCACAT,1.048 ± 0.0022
19,AGCTGGCCCT,1 ± 0.013
20,AGCTGGCTGT,0.9735 ± 0.0037
21,AGCTGGGATT,0.989 ± 0.054
22,AGCTGTACTG,1.09 ± 0.011
23,AGCTGTCGCT,1.01 ± 0.076
24,AGCTGTTGCA,0.971 ± 0.024
25,AGCTTAGGGA,0.99 ± 0.036

row,Sequence,switch fluorescence ratio
1,AGCTTATCTA,1 ± 0.011
2,AGCTTATGTT,0.985 ± 0.017
3,AGCTTCCATG,1.09 ± 0.023
4,AGCTTCGGTC,0.953 ± 0.0098
5,AGCTTCGTTT,1 ± 0.031
6,AGCTTCTTAA,0.992 ± 0.068
7,AGCTTGAAG,0.999 ± 0.019
8,AGCTTGATGT,1.02 ± 0.053
9,AGCTTGGGTC,0.994 ± 0.019
10,AGCTTGTCGG,1.01 ± 0.025
11,AGCTTGTTCG,0.987 ± 0.023
12,AGCTTTGGGG,1.02 ± 0.018
13,AGGAAAGGCG,1.09 ± 0.015
14,AGGAAAGTGT,1.01 ± 0.017
15,AGGAAATTTG,0.994 ± 0.031
16,AGGAACGCGG,1.04 ± 0.018
17,AGGAACTGCA,1.07 ± 0.029
18,AGGAAGCGGT,0.958 ± 0.051
19,AGGAAGGGGA,0.9683 ± 0.0089
20,AGGAATACTT,1.07 ± 0.043
21,AGGAATCAAG,0.9968 ± 0.0071
22,AGGAATGCAA,1.09 ± 0.017
23,AGGAATTGAT,1.13 ± 0.27
24,AGGAATTTTA,0.9554 ± 0.0062
25,AGGACAGGTG,1.33 ± 0.055

row,Sequence,switch fluorescence ratio
1,AGGACGGTAG,0.992 ± 0.058
2,AGGACGTTGG,0.963 ± 0.034
3,AGGACTGTCT,0.986 ± 0.018
4,AGGAGAACGG,0.938 ± 0.011
5,AGGAGAAGGG,0.985 ± 0.018
6,AGGAGAGGGT,0.967 ± 0.013
7,AGGAGAGTCA,0.9825 ± 0.0036
8,AGGAGGAAGT,1.01 ± 0.026
9,AGGAGGCATG,0.986 ± 0.043
10,AGGAGGCGGG,0.99 ± 0.035
11,AGGAGGGCAG,1.013 ± 0.0059
12,AGGAGGGCGA,0.9582 ± 0.002
13,AGGAGGTGCT,0.965 ± 0.067
14,AGGAGTGGGG,1 ± 0.022
15,AGGAGTTCTT,0.989 ± 0.032
16,AGGAGTTTGG,0.981 ± 0.015
17,AGGATAAATT,0.983 ± 0.025
18,AGGATACATT,1.02 ± 0.02
19,AGGATATGGA,0.997 ± 0.022
20,AGGATCTATG,1.03 ± 0.021
21,AGGATGAGCT,0.969 ± 0.032
22,AGGATGGTAA,1 ± 0.02
23,AGGATGGTGG,1.02 ± 0.037
24,AGGATGTGAC,1.01 ± 0.02
25,AGGATTCGGC,1.04 ± 0.059

row,Sequence,switch fluorescence ratio
1,AGGATTGTGA,1.02 ± 0.028
2,AGGATTTACT,1.01 ± 0.026
3,AGGATTTAGG,0.983 ± 0.031
4,AGGCACAGAA,1.019 ± 0.0098
5,AGGCACGCGC,1.01 ± 0.013
6,AGGCAGTTCG,0.996 ± 0.02
7,AGGCAGTTGG,0.966 ± 0.019
8,AGGCATCGGA,0.9953 ± 0.0063
9,AGGCATTAAT,1.01 ± 0.018
10,AGGCCAGGGG,1.06 ± 0.1
11,AGGCCCACAT,1.01 ± 0.046
12,AGGCCCGAGC,0.98 ± 0.073
13,AGGCCCGGGC,0.958 ± 0.023
14,AGGCCGGAGC,1.06 ± 0.036
15,AGGCCGGGGG,0.992 ± 0.025
16,AGGCCGTTCG,0.9976 ± 0.0073
17,AGGCCTTTTC,1.008 ± 0.0026
18,AGGCGAAACG,0.97 ± 0.065
19,AGGCGACGTT,0.9931 ± 0.0069
20,AGGCGAGGGG,0.988 ± 0.032
21,AGGCGATAAT,1.12 ± 0.13
22,AGGCGATCGG,0.99 ± 0.023
23,AGGCGCGGTG,1.03 ± 0.0079
24,AGGCGCTTAT,1.33 ± 0.55
25,AGGCGGAGCT,0.9926 ± 0.0033

row,Sequence,switch fluorescence ratio
1,AGGCGGATTT,1 ± 0.044
2,AGGCGGCTGA,1.05 ± 0.021
3,AGGCGGGAGG,1.034 ± 0.0056
4,AGGCGGGGGT,1.018 ± 0.0094
5,AGGCGGGTAA,1.022 ± 0.0082
6,AGGCGTGGCT,0.982 ± 0.064
7,AGGCGTTGGT,1.05 ± 0.11
8,AGGCTAACCG,0.985 ± 0.019
9,AGGCTACGTC,0.9925 ± 0.0061
10,AGGCTGGCTC,0.98 ± 0.01
11,AGGCTGTGGG,1.03 ± 0.015
12,AGGCTTATCT,0.989 ± 0.025
13,AGGCTTGAGG,0.9904 ± 0.0044
14,AGGCTTTGGG,0.978 ± 0.0099
15,AGGGAAAAGG,1.02 ± 0.031
16,AGGGAAATAG,1.02 ± 0.023
17,AGGGAAATCT,1.034 ± 0.01
18,AGGGAAGAAC,1.006 ± 0.0073
19,AGGGAAGGGC,1.032 ± 0.0084
20,AGGGAATTGG,1.01 ± 0.044
21,AGGGACAACT,1.08 ± 0.0015
22,AGGGACGAGT,1.07 ± 0.11
23,AGGGACGCGC,1.07 ± 0.018
24,AGGGACGGTG,1 ± 0.056
25,AGGGAGAAGG,1 ± 0.011
